Biological target: the molecule itself
Assay: cross-linking

B1: ME2-Flag catalytic-inactive mutant (CM), stably expressed in MOLM14 cells (natural protein)
chain: not shown
**Q.** Which “stoichiometry N” value does the source give for B1 here?
**A.** 2

Reference: paper PMC10472834 (Cell metabolism, 2021)
